Assay [1] has as its target T1, 5T4 (immobilised for SPR) (UniProt Q13641 32-355, limits assumed, biotinylated on the MASS-1 platform).
T1 construct: also called biotinylated 5T4
T1 sequence (looked up): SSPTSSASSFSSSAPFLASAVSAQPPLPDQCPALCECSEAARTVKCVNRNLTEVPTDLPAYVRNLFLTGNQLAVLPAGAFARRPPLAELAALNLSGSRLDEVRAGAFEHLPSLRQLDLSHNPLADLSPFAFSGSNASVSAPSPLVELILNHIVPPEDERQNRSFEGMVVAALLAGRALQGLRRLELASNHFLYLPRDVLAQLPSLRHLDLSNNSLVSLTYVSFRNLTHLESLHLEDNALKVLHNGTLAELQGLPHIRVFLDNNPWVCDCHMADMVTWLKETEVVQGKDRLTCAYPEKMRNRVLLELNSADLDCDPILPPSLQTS
The experiment in a line: SPR Biacore 3000, 5T4 amine-coupled, mAb injected, 1:1 Langmuir. The protocol:
(§1) Binding kinetics of the 5T4-specific mAbs have been studied using two different SPR-based platforms, the Biacore 3000 (GE Healthcare) and the MASS-1 platform (Sierra Sensors). Briefly, 5T4 was captured at the sensor chip surface either via direct amine coupling (Biacore platform) or using a streptavidin coated chip and biotinylated 5T4 (MASS-1 platform). The different 5T4-specific mAbs were then injected over the chip in increasing concentrations and the association and dissociation rates studied in real time. A 1:1 Langmuir model was used for curve fitting.
On the technique in general: SPR reads the build-up and loss of mass on a sensor chip optically.

For assay [2], the target named is T2, human 5T4 on transfected cells (human, UniProt Q13641 32-420).
T2 construct: whole, on cells; for B16 and A9 cells only a 5T4 construct is named; also called 5T4-transfected B16 cells; B16-5T4
T2 sequence (looked up): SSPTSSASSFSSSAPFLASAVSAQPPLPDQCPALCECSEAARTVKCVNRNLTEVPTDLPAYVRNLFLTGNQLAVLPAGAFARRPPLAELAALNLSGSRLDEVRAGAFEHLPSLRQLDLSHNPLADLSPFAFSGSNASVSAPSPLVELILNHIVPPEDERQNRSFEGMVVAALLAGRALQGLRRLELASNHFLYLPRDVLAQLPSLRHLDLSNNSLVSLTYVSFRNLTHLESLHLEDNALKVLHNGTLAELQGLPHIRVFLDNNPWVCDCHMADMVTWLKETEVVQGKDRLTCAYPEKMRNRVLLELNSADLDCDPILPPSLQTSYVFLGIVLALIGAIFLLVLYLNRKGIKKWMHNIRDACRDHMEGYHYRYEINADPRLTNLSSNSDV
Put plainly: flow cytometry, CHO cells stably transfected with human 5T4. The protocol: (§2) Analysis of 5T4 mAb binding with flow cytometry was performed using 5T4-transfected cell lines and as negative control, mock transfected cells. Three different transfected cell lines used were used for this study; B16, A9 and CHO, transfected either with a 5T4 construct or with an empty vector control construct. Cells were stained with 5T4 antibodies diluted in FACS buffer (PBS, 0.5% BSA and 0.02% NaN₃). […] Samples were analysed either on a FACSCalibur or a FACSverse (BD Biosciences, Heidelberg, Germany) and mean fluorescence intensity (MFI) determined.
In a new attempt to calculate EC50 with flow cytometry a 5T4 mAb dose response experiment was performed using CHO cells stably transfected with human 5T4.
A general note: In flow cytometry, cells or beads pass a laser one at a time.

Assay [3] addresses T1, 5T4 (immobilised for SPR). The experiment in a line: SPR MASS-1, biotinylated 5T4 on streptavidin chip, mAb injected, 1:1 Langmuir. The protocol: as §1
In another assay the target is T3, mouse 5T4 (mouse, UniProt Q9Z0L0 32-426).
T3 construct: whole, on cells; also called murine 5T4
T3 sequence (looked up): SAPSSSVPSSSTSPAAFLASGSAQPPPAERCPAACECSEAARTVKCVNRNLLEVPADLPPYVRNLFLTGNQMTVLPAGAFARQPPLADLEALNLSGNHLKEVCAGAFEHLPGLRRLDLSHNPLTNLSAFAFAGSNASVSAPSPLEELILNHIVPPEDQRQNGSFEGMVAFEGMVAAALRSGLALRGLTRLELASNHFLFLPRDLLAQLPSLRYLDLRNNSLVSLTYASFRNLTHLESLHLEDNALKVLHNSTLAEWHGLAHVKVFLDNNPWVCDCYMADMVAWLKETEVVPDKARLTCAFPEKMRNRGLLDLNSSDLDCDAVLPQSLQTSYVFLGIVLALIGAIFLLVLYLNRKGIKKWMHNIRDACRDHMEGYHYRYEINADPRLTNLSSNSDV
Put plainly: flow cytometry, mouse 5T4-transfected cells.

In assay [4] the target is T4, cynomolgus 5T4 (Macaca mulatta (cynomolgus)).
T4 construct: whole, on cells; stably transfected CHO cells; also called cyno5T4; cy5T4
Put plainly: flow cytometry, CHO cells transfected with cynomolgus 5T4. On the procedure:
(§3) The potency of 5T4 antibodies in binding to cynomolgus 5T4 was determined by flow cytometry. CHO cells were stably transfected with […] (cynomolgus) 5T4. […] Samples were analysed either on a FACSCalibur or a FACSverse (BD Biosciences, Heidelberg, Germany) and mean fluorescence intensity (MFI) determined. […] To compare the EC50 values between human and cynomolgus 5T4, the cy5T4/hu5T4 ratio was calculated from the experiment with the full dose-response.

In assay [5] the target is T2, human 5T4 on transfected cells. Put plainly: flow cytometry, 5T4-transfected A9 cells. The protocol: as §2
The target of assay [6] is T4, cynomolgus 5T4. The experiment in a line: flow cytometry, CHO cells with cynomolgus 5T4 against CHO cells with human 5T4. On the procedure: as §3
For assay [7], the target named is T2, human 5T4 on transfected cells. Put plainly: flow cytometry, 5T4-transfected B16 cells. The protocol:
as §2

Another assay addresses T5, 5T4-Fc (human, UniProt Q13641 32-355, limits assumed).
T5 construct: obtained from Peter L. Stern, University of Manchester; also called h5T4-Fc; recombinant 5T4
T5 sequence (looked up): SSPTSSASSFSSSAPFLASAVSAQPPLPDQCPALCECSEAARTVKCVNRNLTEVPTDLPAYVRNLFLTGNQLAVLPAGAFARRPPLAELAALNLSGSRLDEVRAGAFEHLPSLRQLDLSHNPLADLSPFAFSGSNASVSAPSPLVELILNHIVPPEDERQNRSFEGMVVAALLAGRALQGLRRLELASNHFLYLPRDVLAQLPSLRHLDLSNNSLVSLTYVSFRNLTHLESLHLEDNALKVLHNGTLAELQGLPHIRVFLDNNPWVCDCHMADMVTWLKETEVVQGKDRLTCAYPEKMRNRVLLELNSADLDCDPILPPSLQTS
The experiment in a line: ELISA, plates coated with 5T4-Fc. The protocol: ELISA was performed using a standard protocol. Plates (#655074, Greiner Bio-One GmbH, Germany) were pre-coated with 0.5 μg/ml 5T4-Fc (obtained from Peter L. Stern, University of Manchester) overnight. 5T4 antibodies were diluted from 6 to 1.5×10⁻³ μg/ml in 1:4 dilutions and added in duplicates of 50 μl to each well. Binding was detected with rabbit anti-h kappa L-chain-HRP (P0129, Dako Denmark) and the ELISA was developed with SuperSignal ELISA PICO Chemiluminescent substrate (Thermo Scientific Pierce, Rockford, Ill. USA) for 2-10 minutes and read in an automated microplate based multi-detection reader (FLUOstar OPTIMA, Netherlands).
For orientation: ELISA stands for enzyme-linked immunosorbent assay.

B1: 1210/1211 (antibody, IgG1, V domains shown)
VH: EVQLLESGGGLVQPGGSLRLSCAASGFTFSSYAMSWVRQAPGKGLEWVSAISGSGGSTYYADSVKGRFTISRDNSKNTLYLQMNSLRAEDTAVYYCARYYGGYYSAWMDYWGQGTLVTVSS
VL: DIQMTQSPSSLSASVGDRVTITCRASQSISSYLNWYQQKPGKAPKLLIYAASSLQSGVPSRFSGSGSGTDFTLTISSLQPEDFATYYCQQTYGYLHTFGQGTKLEIK
notes: 5T4 antibody
For the molecule B1, binding in assay [1] was characterised by a dissociation constant (Kd) of 0.2 nM. The koff (commonly a measure of how fast the partners let go of each other) in [1] turned out to be 0.0001 s⁻¹; in [3], 0.00019 s⁻¹. Also, the figures for the association rate constant (kon) in assay [1] and in [3] were 500000 M⁻¹ s⁻¹ and 510000 M⁻¹ s⁻¹, respectively. Besides, the concentration giving a half-maximal response (EC50) – broadly, the concentration that produces a half-maximal response – in assay [2] turned out to be 0.81 nM; with cynomolgus 5T4 [4] it was 0.7 nM; in assay [7] it was 0.8 nM; in the assay with 5T4-Fc, 0.48 nM. Moreover, in assay [2], the “EC50 normalized to reference 1628” value was 1.6 ratio to 1628. Moreover, the binding result with mouse 5T4 is on record as “no binding”. Also, the “Normalized EC50 (to 1628)” value is 1.8 ratio to 1628 in [5] and 1.6 ratio to 1628 in [7]. In addition, the “Ratio EC50cyno-5T4/h5T4” value with cynomolgus 5T4 [6] is 0.9 ratio.

B2: 1206/1207 (antibody, V domains shown)
VH: EVQLLESGGGLVQPGGSLRLSCAASGFTFSGSSMSWVRQAPGKGLEWVSSIYYSGSGTYYADSVKGRFTISRDNSKNTLYLQMNSLRAEDTAVYYCARYGRNVHPYNLDYWGQGTLVTVSS
VL: DIQMTQSPSSLSASVGDRVTITCRASQSISSYLNWYQQKPGKAPKLLIYAASSLQSGVPSRFSGSGSGTDFTLTISSLQPEDFATYYCQQGYYYLPTFGQGTKLEIK
notes: 5T4 antibody
With B2, the dissociation constant Kd (commonly the equilibrium constant for the complex coming apart) in assay [1] was 2.3 nM. Besides, the figures for the off-rate (koff) in assay [1] and in assay [3] were 0.00028 s⁻¹ and 0.00013 s⁻¹, respectively. For the same molecule, the association rate constant (kon) (in general, the rate constant with which the complex forms) in assay [1] was found to be 130000 M⁻¹ s⁻¹; in assay [3], 1.4e+06 M⁻¹ s⁻¹. The 50% effective concentration (EC50) in assay [2] was determined as 0.51 nM; in the assay with cynomolgus 5T4 [4] it was 1.53 nM; in assay [7] it was 1.8 nM; in the assay with 5T4-Fc it was 0.64 nM. Besides, the “EC50 normalized to reference 1628” value in assay [2] was 1 ratio to 1628. Also, the binding result with mouse 5T4 is on record as “no binding”. Also, the “Normalized EC50 (to 1628)” value is 2.9 ratio to 1628 in [5] and 3.9 ratio to 1628 in [7]. Besides, the “Ratio EC50cyno-5T4/h5T4” value with cynomolgus 5T4 [6] is 3 ratio.

For the origin of these results see patent US20190161555A1 (ALLIGATOR BIOSCIENCE, published 2019).
